Assay: yeast display, Sf9 membrane polyspecificity reagent, FACS + sequencing; frameworks hold sequencing errors
How it was run: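 A nanobody's polyreactivity label depends on the gate it was sorted from. Yeast display cells were stained with 10% biotinylated, detergent-solubilized Sf9 membrane reagent for 1 hour at 4 °C, enriched on streptavidin microbeads and sorted by FACS. The low and high (top ~1%) gates were set on anti-HA fluorescence for expression and streptavidin fluorescence for reagent binding.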

Question: For “QVQLVESGGGLVQAGGSLRLSCAASGLIFTYYAMGWYRQAPGKERELVAGISSGTNTNYADSVKGRFTISRDNAKNTVYLQMNSLKPEDTALYYCATTRGYQFVAYGYWGQGTQVTVSS”, which “polyreactivity (PSR sort gate)” value is on record?
Answer: low polyreactivity

Question: With “QVQLVESGGGLVQAGGSLRLSCAASGRTFTGYAMGWYRQAPGKERELVAAISQGSGSTYYADSVKGRFTISRDNAKNTVYLQMNSLKPEDTAVYYCAAERAYYQTGHYYWGQGTQVTVSS” as the sequence, how does the “polyreactivity (PSR sort gate)” value read?
Answer: high polyreactivity

Question: Which “polyreactivity (PSR sort gate)” value does the source give for “QVQLVESGGGLVQAGGSLRLSCAASGSTFFYYAMGWYRQAPGKDRELVAAISGGGGDTTYADSVKGRFTISRDNAKNTVYLQMNSLKPEDTAVYYCAAVPGSFGSGIFDYWGQGTQATVSS” here?
Answer: low polyreactivity

Question: Which “polyreactivity (PSR sort gate)” value does the source give for “QVQLVESGGGLVQAGGSLRLSCAASGFTFYWYAMGWYRQAPGKERQLVAAISKTGGSTYYADSVKGRFTISRDNAQKTVYLQMTSLKPEDTAVYYCNADKVATWRTHHDYWGQGTQVTVSS” here?
Answer: low polyreactivity

Question: Which “polyreactivity (PSR sort gate)” value does the source give for “QDQLVESGGGLVQAGGSLRLSCAASGLIVGDYAMGWYRQAPGKERELVAAITGSVTRTYYADSVKGRFTISRDNAKNTVYLQMNSLKPEDTAVYYCATRVHYIGFYDYDYWGQGTQVTVSS” here?
Answer: low polyreactivity

Question: Which “polyreactivity (PSR sort gate)” value does the source give for “QVQLVESGGGLVQAGGSLRLSCAASGITLYRYAMGWYRQAPGKERELVADISSGGGTTYYADSVKGRFTISRDNAKNTVYLQMNSLKPEDTAVYYCAADYGFRYPLYDYWGQGTQVTVSS” here?
Answer: low polyreactivity

Question: With “QFQLVESGGGLVQAGGSLRLSCAASGLIFPKYAMGWYRQAPGKEREFVAAISGRGGTTYYADSVKGRFTISRDNAKNTVYLQMNSLKPEDTAVYYCAAGGPWANIYGNGYWGQGTQVTVSS” as the sequence, how does the “polyreactivity (PSR sort gate)” value read?
Answer: high polyreactivity

Question: Which “polyreactivity (PSR sort gate)” value does the source give for “QVQLVESVGGFVQAGGSLRLSCAASGRTFGRYAMGWYRQAPGKEWELVAAITRSGSSTYYADSVKGRFTISRDNAKNTVYLQMNSMKPEDTAVYYCAALYGPFYSTGEYWGQGTQVTVSS” here?
Answer: high polyreactivity

Question: Which “polyreactivity (PSR sort gate)” value does the source give for “QVQLVESGGGLVQAGGSLRLSCAASGRIFGVYAMGWYRQAPGKERQLVAAITARGGSTYYADSVKGRFTISRDNAKNTVYLQMNSLKPEDTAVYYCATRLYKRTRTITYGYWGQGTQVTVSS” here?
Answer: high polyreactivity

Question: For “QVQLVESGGGLVQAGGSLRLSCAASGITFAYYAMGRSRQAPGKERELVAAIRWSGGDTYYADSVKGRFTISRDNAKNTVYLQMNSLKPEDTAVYYCAADTTWGYDYWGQGTQVTVSS”, which “polyreactivity (PSR sort gate)” value is on record?
Answer: low polyreactivity

Question: Which “polyreactivity (PSR sort gate)” value does the source give for “QVQLVESGGGLVQAGGSLRLSCAASGRIFYANAMGWYRQAPGKEWEFVASITYGGGSTYYADSVKGRFTISRDNAKNTVYLQMNSLKPEDTAVYYCAAGYYAQYEDYIRYDYWGQGTQVTVSS” here?
Answer: low polyreactivity

Question: With “QVQLVESGGGLVQAGGSLRLSCAASGFTFSPNAMGWYRQAPGKERELVAAITTTGGSTHYADSVKRRFTISRDHAKNTVYLQMHSLKQEDTAVYYCAADWYFEYPTAFHYEYWGQGTQVTVSS” as the sequence, how does the “polyreactivity (PSR sort gate)” value read?
Answer: high polyreactivity

Question: With “QVQLVESGGGLVQAGGTLRLSCAASGSTFKSNAMGWYRQEPGKERELVAAINRSGAGTYYADSVKGRFTISRDNAKNTVYLQMNSLKPEDTAVYYCAAQSYSRRYDYWGQGTQVTVSS” as the sequence, how does the “polyreactivity (PSR sort gate)” value read?
Answer: high polyreactivity

Question: With “QVQLVESGGGLVQAGGSLRLSCAASGSIFHPYAMGWYRQAPGKERELVAAISKSGGNTYYADSVKGRFTISRDNAKNTVYLQMNSLKPEDTAVYYCAALDYWGQVTQVTVSS” as the sequence, how does the “polyreactivity (PSR sort gate)” value read?
Answer: low polyreactivity

Question: Which “polyreactivity (PSR sort gate)” value does the source give for “QVQLVESGGALVQAGGRLRLSCAASGRTFRAYAMGWYRQAPGKERELVAAITSGGSTYYADSVKGRFTISRDNAKNTVYLQMNSLKPEDTEVYYCNRRGWSRTHQYDYWGQGTQVTVSS” here?
Answer: high polyreactivity

Question: Which “polyreactivity (PSR sort gate)” value does the source give for “QVQLVESGGGLVQAGGSLRLSCAASGRILSSNAMGWYRQAPRKERELVAAISWSGGSTYYADSVKGRFTISRDNAKNTVYFQMNSLKPEDTAVYYCAAPFTTTFDYWGKGTQVTVSS” here?
Answer: low polyreactivity

Question: For “QVQLQESGGGLVQAGGSLRLSCAASGTITVLYKMGWFRQAPGKEREFVASINYGTRTYYADSVKGRFTVSRDSAKNTVYLQMNSLKPEDTAVYYCAAAYRWQDVYRYWGQGTQVTVSS”, which “polyreactivity (PSR sort gate)” value is on record?
Answer: low polyreactivity

Question: Which “polyreactivity (PSR sort gate)” value does the source give for “QVQLVESGGGLVQAGGSLRLSCAASGFTFWRNVMGWYRQAPGKERELVAAITRSGGSTYYADSVKGRFTISRDNAKNTVYLQMNSLKPEDTAVYYCNAVRHGGYDYLGQGTQVTVSS” here?
Answer: high polyreactivity

Question: Which “polyreactivity (PSR sort gate)” value does the source give for “QVQLVESGGGLVQAGGSLRLSCAASGSTVESNVMGWYRQAPGKERELVAAISYSGGSTYIADSVKGRFTISRDNAKNTVYLQLNSLNPEDTAVLYSNALTSGYLYTFHRLWYPMYYWGQGTQGTVSS” here?
Answer: high polyreactivity

Question: With “QVQLVESGGGLVQAGGSLRLSCAASGSIFVYYAMGWYRQAPGKERELVAAISSRGGRTYYADSVKGRFTISRDNAKNTVYLQMNSLKPEDTAVYYCAAVSSRLWLYDYWGQGTQVTVSS” as the sequence, how does the “polyreactivity (PSR sort gate)” value read?
Answer: high polyreactivity

Question: For “QVQLVESGGGLVQAGGSLRLSCAASGSIFAYNAMGWYRQAPGKERELVAGISSRGVSTYADSVKGRFTISRDNAKNTVYLQMNSLKPEDTAVYYCARGGYWGKRGRYDYWGQGTQVTVSS”, which “polyreactivity (PSR sort gate)” value is on record?
Answer: low polyreactivity

Question: With “QVQLVESGGGLVQAGGSLRLSCAASGRTFSVNAMGWYRQAPGKERELVAAISWDGGSTYYADSVKGRFTISRDNAKNTVYLQMNSLKPEDTAVYYCNQDLYYAYDYWGQGTQVTVSS” as the sequence, how does the “polyreactivity (PSR sort gate)” value read?
Answer: low polyreactivity

Question: With “QVQLGESGGGLVQAGGSLRLSCAPSGSTFNRFARGWYILAPGNVRELVAAISRSGGSTYYADSVKGRFTISRDNPKTTLYLQMNSLKPEDTAVYYCAADRTGHGFGYWGQGTQVTVSS” as the sequence, how does the “polyreactivity (PSR sort gate)” value read?
Answer: high polyreactivity

Question: Which “polyreactivity (PSR sort gate)” value does the source give for “QVQLVESGGGLVQAGGSLRLSCAASGRTFYKYGMGWYRQAPGKERELVARINSNGGSTYYADSVKGRFTISRDNAKNTVYLQMNSLKPEDTAVYYCARSYVRSYGYYYWGKGTQVTVSS” here?
Answer: low polyreactivity

Question: Which “polyreactivity (PSR sort gate)” value does the source give for “QVQLVESGGGLFQAGGSLRLSCAASGSIFQYYTMRWYRQAPGKERELVATINNNGGRTYYADSVKGRFTISRDNAMNSVYFQMYSLKPVDTAVYYCATDIWRYYRGWEDYWGQGTEVTVSS” here?
Answer: high polyreactivity

Question: With “QVQLVESGVGLVQAGGSLRLSCAASGFTFCPYDKGWYRQAPGKERELVAVIIGGDSTNYADSVKGRFTISRDNAKNTVYLLMNSLKPEDTAVYYCASDYIDRVGWMDYWGQGTQVTVSS” as the sequence, how does the “polyreactivity (PSR sort gate)” value read?
Answer: low polyreactivity

Question: For “QVQLVESGGGLVQAGGSLRLSCAAYGRTFRKNAMGWYRQAPVKERELVASMSKNGAGTYYADSVKGRFTISRDTAKNTVYLQMNSLKPEDTAVYYCAKLPNLPGDYWGQGTQVTVSS”, which “polyreactivity (PSR sort gate)” value is on record?
Answer: low polyreactivity

Question: Which “polyreactivity (PSR sort gate)” value does the source give for “QVQLVESGGGLVQAGGSLRLSCAASGSNFLYYAIGWYRQAPGKERELVDGIRRGGRTNYADSVKGRFTISRDNAKNTVYLQMNSLKPEDTAVYYCAKGGYWGQGTQVTVSS” here?
Answer: high polyreactivity

Question: With “QVQLVDSGGGLVQAGGSLRLICAASGSTFYHYAMGWYRQAPGKERELVAAISSSGGRTYYADSVKGRFTISRDNAKNTVYLQMNSLKPEDTAVYYCAARAKTSGSIEDYWGQGTQVTVSS” as the sequence, how does the “polyreactivity (PSR sort gate)” value read?
Answer: high polyreactivity

Question: For “QVQLVDSGGYLVQAGGSLRLSCAASGTTSLFYAMGWYRQAPGKERELVAAISRTGSTHYADSVKGRFTIARANAKYTVYLQMNSLKAEDTAVYYCAAYYRYRSGRYYYWGQGTQVTVSS”, which “polyreactivity (PSR sort gate)” value is on record?
Answer: high polyreactivity

Question: Which “polyreactivity (PSR sort gate)” value does the source give for “QVQLVESGGGLVQAGGSLRLSCAPSGSTFTSYAMGWYRQAPGKDRELVAAITYGSGTTYADSVKGRFTISRDNAKNTVYLQMNSLKPEDTAVYYCAADFYYPVLGHGFPTYEYDYWGQGTQVTVSS” here?
Answer: low polyreactivity

Question: For “QVQLVESGGGLVQAGGSLRLICAASGSIFFSYAMGSYRQAPGKERELVAGINRSGGSTYADSVKGRFTISRDNAKNTVNLQMTSLKPEDTAVYYCAAKYYSERSRYHYWGQGTQVTVSS”, which “polyreactivity (PSR sort gate)” value is on record?
Answer: low polyreactivity

Source: the nanobody polyreactivity screen of Harvey et al. (2022)
